In patent US20250152746A1, “BASE EDITING OF ANGPTL3 AND METHODS OF USING SAME FOR TREATMENT OF DISEASE” (Verve Therapeutics, Inc., priority 2020, published 2025):
In the oligonucleotide strings, read from the 5' end, every base follows the letter of its sugar. An asterisk marks phosphorothioate; unmarked linkages are phosphodiester. Other units and linkages are bracketed, terminal groups are in braces. A string of capitals states the bases alone. m = 2'-O-methyl; r = 2'-OH (RNA)

B1: GA191: PCSK9 gRNA; protospacer GCCCCATGTCGACTACATCG (SEQ ID NO: 185) (nucleic acid)
guide: mG*mC*mC*rCrCrArUrGrUrCrGrArCrUrArCrArUrCrGrGrUrUrUrUrArGrArGrCrUrArGrArArArUrArGrCrArArGrUrUrArArArArUrArArGrGrCrUrArGrUrCrCrGrUrUrArUrCrArArCrUrUrGrArArArArArGrUrGrGrCrArCrCrGrArGrUrCrGrGrUrGrCrU*mU*mU*mU
B2: GA187: PCSK9 gRNA; protospacer CTCCTCGATGTAGTCGACAT (SEQ ID NO: 181) (nucleic acid)
guide: mC*mU*mC*rCrUrCrGrArUrGrUrArGrUrCrGrArCrArUrGrUrUrUrUrArGrArGrCrUrArGrArArArUrArGrCrArArGrUrUrArArArArUrArArGrGrCrUrArGrUrCrCrGrUrUrArUrCrArArCrUrUrGrArArArArArGrUrGrGrCrArCrCrGrArGrUrCrGrGrUrGrCrU*mU*mU*mU
B3: GA189: PCSK9 gRNA; protospacer TCCTCGATGTAGTCGACATG (SEQ ID NO: 183) (nucleic acid)
guide: mU*mC*mC*rUrCrGrArUrGrUrArGrUrCrGrArCrArUrGrGrUrUrUrUrArGrArGrCrUrArGrArArArUrArGrCrArArGrUrUrArArArArUrArArGrGrCrUrArGrUrCrCrGrUrUrArUrCrArArCrUrUrGrArArArArArGrUrGrGrCrArCrCrGrArGrUrCrGrGrUrGrCrU*mU*mU*mU
B4: GA188: PCSK9 gRNA; protospacer TATTCATCCGCCCGGTACCG (SEQ ID NO: 182) (nucleic acid)
guide: mU*mA*mU*rUrCrArUrCrCrGrCrCrCrGrGrUrArCrCrGrGrUrUrUrUrArGrArGrCrUrArGrArArArUrArGrCrArArGrUrUrArArArArUrArArGrGrCrUrArGrUrCrCrGrUrUrArUrCrArArCrUrUrGrArArArArArGrUrGrGrCrArCrCrGrArGrUrCrGrGrUrGrCrU*mU*mU*mU
B5: GA005: PCSK9 gRNA, GA156 spacer with modifications to the tracrRNA sequence (nucleic acid)
guide: GGTGCTAGCCTTGCGTTCCGGTTTTAGAGCTAGAAATAGCAAGTTAAAATAAGGCTAGTCCGTTATCAACTTGAAAAAGTGGCACCGAGTCGGTGCTTTTT
modifications: chemistry not given here
B6: GA002: PCSK9 gRNA, GA156 spacer with modifications to the tracrRNA sequence (nucleic acid)
guide: GGTGCTAGCCTTGCGTTCCGGTTTTAGAGCTAGAAATAGCAAGTTAAAATAAGGCTAGTCCGTTATCAACTTGAAAAAGTGGCACCGAGTCGGTGCTTTT
modifications: listed as RNA; modified_base 1: mod_base = OTHER; note = 2'-O-Methyl-guanosine phosphorothioate; modified_base 2: mod_base = OTHER; modified_base 3: mod_base = OTHER; note = 2'-O-Methyl-uridine phosphorothioate
B7: GA009: minimally modified control gRNA, PCSK9 (nucleic acid)
guide: mG*mG*mU*rGrCrUrArGrCrCrUrUrGrCrGrUrUrCrCrGrGrUrUrUrUrArGrArGrCrUrArGrArArArUrArGrCrArArGrUrUrArArArArUrArArGrGrCrUrArGrUrCrCrGrUrUrArUrCrArArCrUrUrGrArArArArArGrUrGrGrCrArCrCrGrArGrUrCrGrGrUrGrCrU*mU*mU*mU
B8: GA001: PCSK9 gRNA, GA156 spacer with modifications to the tracrRNA sequence (nucleic acid)
guide: rG*rG*rU*rGrCrUrArGrCrCrUrUrGrCrGrUrUrCrCrGrGrUrUrUrUrArGrAmGmCmUmAmGmAmAmAmUmAmGmCrArArGrUrUrArArArArUrArArGrGrCrUrArGrUrCrCrGrUrUrArUrCrAmAmCmUmUmGmAmAmAmAmAmGmUmGmGmCmAmCmCmGmAmGmUmCmGmGmUmGmCmU*mU*mU*mU
B9: GA004: PCSK9 gRNA, GA156 spacer with modifications to the tracrRNA sequence (nucleic acid)
guide: mG*mG*mU*rGrCrUrArGrCrCrUrUrGrCrGrUrUrCrCrGmGrUrUrUrUrArGmAmGmCmUmAmGmAmAmAmUmAmGmCmAmArGrUrUmArAmArAmUrAmAmGmGmCmUmArGrUmCmCrGrUrUrAmUmCrArAmCmUmUmGmAmAmAmAmAmGmUmGrGmCmAmCmCmGmAmGmUmCmGmGmUmGmCmUmUmUmUmU
B10: GA003: PCSK9 gRNA, GA156 spacer with modifications to the tracrRNA sequence (nucleic acid)
guide: mG*mG*mU*rGrCrUrArGrCrCrUrUrGrCrGrUrUrCrCrGrGrUrUrUrU*rArGrAmGmCmUmAmGmAmAmAmUmAmGmCrArArGrUrU*rArArArArU*rArArGrGrCrU*rArGrUrCrCrGrUrU*rArUrC*rAmAmCmUmUmGmAmAmAmAmAmGmUmGmGmCmAmCmCmGmAmGmUmCmGmGmUmGmCmU*mU*mU*mU
B11: GA006: PCSK9 gRNA, GA156 spacer with modifications to the tracrRNA sequence (nucleic acid)
guide: rG*rG*rU*rGrCrUrArGrCrCrUrUrGrCrGrUrUrCrCrGmGrUrUrUrUrArGmAmGmCmUmAmGmAmAmAmUmAmGmCmAmArGrUrUmArAmArAmUrAmAmGmGmCmUmArGrUmCmCrGrUrUrAmUmCrArAmCmUmUmGmAmAmAmAmAmGmUmGrGmCmAmCmCmGmAmGmUmCmGmGmUmGmCmU*mU*mU*mU

Each molecule was assayed on PCSK9 gene (assay: PCSK9 gRNA/SpCas9 editing in primary cynomolgus hepatocytes (Tables 2, 22)). Details: 100 ng/RNA/mL; SpCas9 mRNA MS002 1:1 by weight.
Format: cell-based, cynomolgus monkey
Protocol: (§1) In set of experiments, PCSK9 gRNAs were co-transfected with an equivalent amount (1:1 ratio by weight) of in vitro transcribed commercially available SpCas9 mRNA MS002 purchased from TriLink Biotechnologies into primary human hepatocytes at 2500, 500, or 100 ng/RNA/mL and processed as described in detailed methods. Extracted genomic DNA was analyzed for gene editing at the target site with next-generation sequencing of PCR amplicons generated around the target sites. Samples were prepared using the Nextera XT DNA library preparation kit (Illumina) according to the manufacturer's protocol. Briefly, two rounds of PCR were performed first to amplify the region of interest and second to add DNA sequences required for next generation sequencing and sample identification to the initial product. The final amplicon was sequenced on the Illumina MiSeq instrument according to the manufacturer's protocol. A wide range of editing activities (Table 2) were observed. In a second set of experiments, ANGPTL3 gRNAs were co-transfected with an equivalent amount of in vitro transcribed SpCas9 mRNA (1:1 ratio by weight) into primary human hepatocytes and processed and analyzed similarly (Table 3).
[…] Genomic DNA was processed, sequenced, and analyzed as described in the detailed methods section. GA266 was transfected independently twice to serve as two positive controls.
(§2) Plating, culturing, and transfection of primary hepatocytes. Primary human liver hepatocytes (PHH) and primary cynomolgus liver hepatocytes (PCH) from BioIVT were cultured per the manufacturer's protocol. Briefly, primary human hepatocytes and primary cyno hepatocytes were obtained as frozen aliquots from BioIVT. Four lots of primary human hepatocytes, each derived from a de-identified individual donor, were used for the experiments: STL (main donor) was used for all experiments, including screening experiments and off-target experiments; HLY, JLP, and TLY were used for off-target experiments. The HFG lot of primary cyno hepatocytes were used for experiments. Following the manufacturer's instructions, cells were thawed and rinsed prior to plating in 24-well plates that had been coated with bovine collagen overnight, with a density of approximate 350,000 cells/well in INVITROGRO hepatocyte medium supplemented with TORPEDO antibiotic mix (BioIVT). The cells were thawed and resuspended in hepatocyte thawing medium followed by centrifugation at 100 g for 10 min at 4° C. The supernatant was discarded, and the pelleted cells resuspended in hepatocyte plating medium. Each vial contains approximately 5 million cells that were used for plating one 24-well plate. Plated cells were allowed to settle and adhere for 4-6 h in a tissue culture incubator at 37° C. under 5% CO2 atmosphere. After incubation, cells were checked for monolayer formation. The incubating media were then replaced with fresh hepatocyte maintenance media (complete INVITROGRO medium obtained from BioIVT, the cell line provider). The cells thus became ready for transfection. Each of the gRNAs were co-transfected with an equivalent amount of in vitro transcribed ABE8.8 mRNA (1:1 ratio by molecular weight) into primary human hepatocytes via MessengerMax reagent (Lipofectamine), using various dilutions to assess for editing activity at different concentrations of test article. MessengerMAX from Thermo Fisher is used for transfection. Solution A: desired amount of guide RNA is mixed with 1:1 wt ratio of mRNA in OptiMEM. Solution B: MessengerMAX in OptiMEM. After mixing solutions A and B, the mixture was incubated at room temperature for 20 min. 60 μL of the incubated solution was added dropwise to each cell wells. For protospacer sequences that were a perfect match to the corresponding cynomolgous monkey PCSK9 or ANGPTL3 gene sequence, each gRNA was also co-transfected with an equivalent amount of ABE8.8 mRNA (1:1 ratio by molecular weight) into primary cynomolgous hepatocytes, and followed the same transfection protocol. […]

Compared with B1, B2 is lower in “Cyno Primary Hepatocyte Editing % 100” value: 5.46% for the first, 3.77% for the second.

Compared with B3, B4 is lower in “Cyno Primary Hepatocyte Editing % 100” value: 3.30% for the first, 0.01% for the second.

Same assay, conditions: 500 ng/RNA/mL; SpCas9 mRNA MS002 1:1 by weight

First: B1
Second: B2
The “Cyno Primary Hepatocyte Editing % 500” value of the first is higher: 26.79% for the first, 12.30% for the second.

First: B3
Second: B4
The “Cyno Primary Hepatocyte Editing % 500” value of the first is higher: 15.58% for the first, 0.01% for the second.

Same assay, conditions: 2500 ng/RNA/mL; SpCas9 mRNA MS002 1:1 by weight

Going from B1 to B2, the “Cyno Primary Hepatocyte Editing % 2500” value falls from 51.79% to 29.24%.

Going from B3 to B4, the “Cyno Primary Hepatocyte Editing % 2500” value falls from 41.70% to 0.06%.

Each molecule was assayed on PCSK9 gene (assay: PCSK9 gRNA/SpCas9 editing in primary human hepatocytes (Tables 2, 4)). Details: 100 ng/RNA/mL; SpCas9 mRNA MS002 1:1 by weight.
Format: cell-based
Protocol: as §1
PCSK9 gRNAs were co-transfected with an equivalent amount of in vitro transcribed SpCas9 mRNA MS002 (1:1 ratio by weight) into primary human hepatocytes and processed as described in detailed methods. A wide range of editing activities were observed (Table 4; ND=Not determined). The guides with the highest editing activity at five days post transfection were GA001, GA002, GA007, and GA008.
Human primary hepatocytes were transfected at 2500, 1250, 500, and 250 ng/test article/mL with SpCas9 mRNA MS002 and a gRNA targeting PCSK9 with modifications to the tracr. Genomic DNA was processed, sequenced, and analyzed as described in the detailed methods section. GA156 was transfected to serve as a positive control.
as §2, with “transfection.” for “transfection. Solution A: desired amount of guide RNA is mixed with 1:1 wt ratio of mRNA in OptiMEM. Solution B: MessengerMAX in OptiMEM. After mixing solutions A and B, the mixture was incubated at room temperature for 20 min. 60 μL of the incubated solution was added dropwise to each cell wells. For protospacer sequences that were a perfect match to the corresponding cynomolgous monkey PCSK9 or ANGPTL3 gene sequence, each gRNA was also co-transfected with an equivalent amount of ABE8.8 mRNA (1:1 ratio by molecular weight) into primary cynomolgous hepatocytes, and followed the same transfection protocol.”

Compared with B1, B2 is lower in “Human Primary Hepatocyte Editing % 100” value: 3% for the first, 2.44% for the second.

Going from B3 to B4, the “Human Primary Hepatocyte Editing % 100” value rises from 1.76% to 4.21%.

Same assay, conditions: 500 ng/RNA/mL; SpCas9 mRNA MS002 1:1 by weight

First: B1
Second: B2
The “Human Primary Hepatocyte Editing % 500” value of the first is higher: 12.2% for the first, 6.47% for the second.

Going from B3 to B4, the “Human Primary Hepatocyte Editing % 500” value rises from 8.94% to 15.38%.

Same assay, conditions: 2500 ng/RNA/mL; SpCas9 mRNA MS002 1:1 by weight

Going from B1 to B3, the “Human Primary Hepatocyte Editing % 2500” value falls from 34.6% to 31.23%.

For B4, the “Human Primary Hepatocyte Editing % 2500” value was 41.02%.

Same assay, conditions: modified gRNA, SpCas9 mRNA MS002 1:1 by weight; day 3 post transfection

First: B5
Second: B6
The “% Editing, day 3” value of the first is lower: 1% for the first, 28% for the second.

Compared with B7, B8 is higher in “% Editing, day 3” value: 4% for the first, 16% for the second.

For B9, the “% Editing, day 3” value was 7%.

Same assay, conditions: modified gRNA, SpCas9 mRNA MS002 1:1 by weight; day 5 post transfection

Compared with B5, B10 is lower in “% Editing, day 5” value: 15% for the first, 7% for the second.

Compared with B11, B6 is higher in “% Editing, day 5” value: 12% for the first, 23% for the second.

Going from B7 to B8, the “% Editing, day 5” value rises from 19% to 27%.

For B9, the “% Editing, day 5” value was 12%.
